The text below walks through data of patent US20050287149A1 (Bristol-Myers Squibb, published 2005).

Positions count from the first letter of the chain named.

Test [1] has as its target T1, Bacillus anthracis protective antigen, full-length 83 kD form (PA83) (Bacillus anthracis, UniProt P13423 30-764).
T1 construct: mature; also called rPA-83; full length PA 83
The test can be described thus: ELISA, plate coated with PA83 (FIG. 11).

Test [2] addresses T2, Bacillus anthracis protective antigen, cleaved 63 kD form (PA63) (Bacillus anthracis, UniProt P13423 197-764).
T2 construct: also called cleaved protective antigen (63 kD); active fragment of PA
Nature of the test: ELISA, plate coated with PA63 (FIG. 11).

T2 sequence (P13423 197-764 limits assumed): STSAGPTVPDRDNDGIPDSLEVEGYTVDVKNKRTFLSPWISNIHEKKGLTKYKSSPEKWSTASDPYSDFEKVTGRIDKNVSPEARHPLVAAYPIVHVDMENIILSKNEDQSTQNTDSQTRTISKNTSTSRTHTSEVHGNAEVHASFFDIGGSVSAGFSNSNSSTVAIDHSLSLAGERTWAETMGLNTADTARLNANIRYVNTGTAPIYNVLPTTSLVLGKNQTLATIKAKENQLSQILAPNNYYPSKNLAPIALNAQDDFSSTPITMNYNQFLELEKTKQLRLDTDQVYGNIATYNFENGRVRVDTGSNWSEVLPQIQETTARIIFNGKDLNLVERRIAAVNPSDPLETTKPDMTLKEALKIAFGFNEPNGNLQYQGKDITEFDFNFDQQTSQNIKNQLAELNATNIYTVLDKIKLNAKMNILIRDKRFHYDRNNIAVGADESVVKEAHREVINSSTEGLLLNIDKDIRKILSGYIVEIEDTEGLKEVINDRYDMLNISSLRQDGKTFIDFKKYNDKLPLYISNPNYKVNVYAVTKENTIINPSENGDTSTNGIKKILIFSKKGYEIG
T1 sequence (P13423 30-764): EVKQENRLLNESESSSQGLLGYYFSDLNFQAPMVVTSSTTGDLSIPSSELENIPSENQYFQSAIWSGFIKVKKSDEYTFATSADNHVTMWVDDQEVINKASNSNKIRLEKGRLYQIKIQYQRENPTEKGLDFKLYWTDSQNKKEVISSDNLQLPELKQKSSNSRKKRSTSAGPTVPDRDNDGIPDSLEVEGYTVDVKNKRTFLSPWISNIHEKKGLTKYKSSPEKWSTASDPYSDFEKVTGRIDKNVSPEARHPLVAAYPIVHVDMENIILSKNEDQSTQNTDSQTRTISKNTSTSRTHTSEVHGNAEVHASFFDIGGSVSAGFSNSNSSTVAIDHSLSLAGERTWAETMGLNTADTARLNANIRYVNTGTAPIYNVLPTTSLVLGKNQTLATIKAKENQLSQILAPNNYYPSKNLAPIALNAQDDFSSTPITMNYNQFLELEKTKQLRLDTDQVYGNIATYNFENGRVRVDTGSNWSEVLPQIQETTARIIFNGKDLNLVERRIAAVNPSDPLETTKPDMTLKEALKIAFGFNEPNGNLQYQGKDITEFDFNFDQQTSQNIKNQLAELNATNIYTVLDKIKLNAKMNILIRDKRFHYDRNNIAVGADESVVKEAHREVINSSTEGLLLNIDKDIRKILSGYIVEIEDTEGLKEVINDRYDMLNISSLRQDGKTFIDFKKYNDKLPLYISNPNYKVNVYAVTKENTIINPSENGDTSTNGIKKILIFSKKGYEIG

B1: human monoclonal antibody 2D5 (antibody, V domains shown)
VH: QVQLVESGGGVVQPGRSLRLSCAASGFTFSSYGMHWVRQAPGKGLEWVAVIWNDGSNKYYADSVKGRFTISRDNSKNTLYLQMNSLRAEDTAVYYCARENWGEYFDYWGQGTLVTVSS
VL: AIQLTQSPSSLSASVGDRVTITCRASQGISSALAWYQQKPGKAPKLLIYDASSLKSGVPSRFSGSGSGTDFTLTISSLQPEDFATYYCQQFNSYWTFGQGTKVEIK
notes: also called HuMab 2D5
B1: the binding result in test [1] and in test [2] was “binds” in each case.

B2: human monoclonal antibody 5D5 (antibody, V domains shown)
VH: QVQLVESGGGVVQPGRSLRLSCAASGFTFSSYGMHWVRQAPGKGLEWVAVIWYDGSNKYYADSVKGRFTISRDNSKNTLYLQMNSLRAEDTAVYYCAREGNRSHYIPFAYWGQGTLVTVSS
VL: DIQMTQSPSSLSASVGDRVTITCRASQGISSWLAWYQQKPEKAPKSLIYAASSLQSGVPSRFSGSGSGTDFTLTISSLQPEDFATYYCQQYNSYPRTFGGGTKVEIK
notes: also called HuMab 5D5; 5D5-2E10
With B2, the binding result in test [1] and in test [2] was “binds” throughout.

B3: human monoclonal antibody 2H4 (antibody, V domains shown)
VH: EVHLVESGGGLVQPGGSLRLSCAASGFTFSSYWMSWVRQAPGKGLEWVANINQYGSEKYYVDSVKGRFTISRDNAKNSLYLQMNSLRAEDTAVYYCARDSPYYYGSGSYYRGYWYFDLWGRGTLVTVSS
VL: B2 VL with R96P, G100Q, K103R, V104L
notes: also called HuMab 2H4
For B3, the binding result in test [1] and in test [2] was “binds” throughout.
